Experimental data: article PMC10640585, “The E3 ligase Riplet promotes RIG-I signaling independent of RIG-I oligomerization” (Nature Communications, 2023)

T1: biotinylated Avi-tagged RIG-I (Retinoic acid inducible gene-I) (human, UniProt O95786 1-925, biotin on the Avi tag (by BirA))
T1 construct: RIG-I, human, full-length protein; Used alone (apo), pre-incubated with the RNA p3SLR14 (one RIG-I per RNA) or with p3dsRNA24 (two RIG-I per RNA); also called Avi-RIG-I; Apo-RIG-I; source: E. coli Rosetta 2(DE3), purified (Ni-NTA, heparin, SEC), biotinylated by BirA, SEC; not shown: His6, N-terminal, cleaved; SUMO, N-terminal, cleaved
T1 sequence (looked up): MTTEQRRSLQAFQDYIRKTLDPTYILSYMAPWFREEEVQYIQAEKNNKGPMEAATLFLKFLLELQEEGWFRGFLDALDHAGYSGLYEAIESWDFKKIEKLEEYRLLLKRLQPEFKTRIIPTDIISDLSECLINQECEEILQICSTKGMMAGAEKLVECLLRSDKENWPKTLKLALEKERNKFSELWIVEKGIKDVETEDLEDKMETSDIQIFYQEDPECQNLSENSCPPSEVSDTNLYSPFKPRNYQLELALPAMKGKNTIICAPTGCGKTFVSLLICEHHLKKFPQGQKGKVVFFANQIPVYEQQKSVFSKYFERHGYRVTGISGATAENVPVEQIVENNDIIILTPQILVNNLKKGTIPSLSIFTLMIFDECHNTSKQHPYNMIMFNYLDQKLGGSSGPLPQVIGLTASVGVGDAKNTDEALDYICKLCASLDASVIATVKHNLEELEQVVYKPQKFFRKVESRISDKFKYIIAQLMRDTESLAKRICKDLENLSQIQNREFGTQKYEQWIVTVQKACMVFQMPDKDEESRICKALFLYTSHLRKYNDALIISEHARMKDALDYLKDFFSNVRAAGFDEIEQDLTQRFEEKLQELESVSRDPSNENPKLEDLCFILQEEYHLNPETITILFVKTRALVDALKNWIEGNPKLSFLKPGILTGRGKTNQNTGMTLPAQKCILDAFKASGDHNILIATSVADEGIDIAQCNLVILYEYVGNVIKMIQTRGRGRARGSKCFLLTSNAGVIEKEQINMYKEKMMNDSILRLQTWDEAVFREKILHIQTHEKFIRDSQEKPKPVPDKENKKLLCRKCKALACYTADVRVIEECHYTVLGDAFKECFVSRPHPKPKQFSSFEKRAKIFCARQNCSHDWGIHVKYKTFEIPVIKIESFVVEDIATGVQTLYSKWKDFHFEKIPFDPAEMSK

T2: biotinylated Avi-tagged RIG-I (human, UniProt O95786 1-925, biotin on the Avi tag (by BirA))
T2 construct: RIG-I (Retinoic acid inducible gene-I), human, full-length; Immobilised on the SPR chip as apo protein or pre-incubated with p3SLR14 (1:1.5) or p3dsRNA24 (2.4:1; two RIG-I on one RNA); also called Avi-RIG-I; biotinylated RIG-I; source: E. coli Rosetta 2(DE3), purified (Ni-NTA, ULP1, heparin, size exclusion), biotinylated by BirA, size exclusion; not shown: 6xHis, N-terminal, cleaved; SUMO, …
T2 sequence (looked up): T1 sequence (looked up)

T3: RIG-I;Riplet (human;human, UniProt O95786;Q8IUD6 1-925;1-432, |)
T3 sequence 1: T1 sequence (looked up)
T3 sequence 2: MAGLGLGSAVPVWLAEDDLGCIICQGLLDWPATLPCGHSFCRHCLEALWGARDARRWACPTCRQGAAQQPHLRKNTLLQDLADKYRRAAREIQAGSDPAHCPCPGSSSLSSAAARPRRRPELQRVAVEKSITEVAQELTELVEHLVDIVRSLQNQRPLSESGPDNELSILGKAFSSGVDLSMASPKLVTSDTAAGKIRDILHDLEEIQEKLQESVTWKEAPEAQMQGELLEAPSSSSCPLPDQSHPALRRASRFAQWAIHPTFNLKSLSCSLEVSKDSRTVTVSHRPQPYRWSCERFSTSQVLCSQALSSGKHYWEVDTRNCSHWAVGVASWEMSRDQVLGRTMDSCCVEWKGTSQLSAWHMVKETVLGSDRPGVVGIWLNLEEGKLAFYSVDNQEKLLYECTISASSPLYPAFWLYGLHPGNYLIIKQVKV

B1: Riplet-PrySpry (249-432) (domain or fragment, human, UniProt Q8IUD6 249-432, looked up)
chain: RRASRFAQWAIHPTFNLKSLSCSLEVSKDSRTVTVSHRPQPYRWSCERFSTSQVLCSQALSSGKHYWEVDTRNCSHWAVGVASWEMSRDQVLGRTMDSCCVEWKGTSQLSAWHMVKETVLGSDRPGVVGIWLNLEEGKLAFYSVDNQEKLLYECTISASSPLYPAFWLYGLHPGNYLIIKQVKV
notes: Riplet, human, PrySpry domain, residues 249-432; also called Pspry; source: E. coli Rosetta 2(DE3), purified (Ni-NTA, SEC); not shown: His6, N-terminal, cleaved; SUMO, N-terminal, cleaved
B2: Riplet-PrySpry (249-432) (domain or fragment, human, UniProt Q8IUD6 249-432, looked up)
chain: B1 chain
notes: Riplet, human, PrySpry domain, residues 249-432 (RING and CC domains deleted); pET-SUMO-Riplet-PrySpry(249-432); the PDB entries are of the full-length parent; also called PrySpry domain alone; source: E. coli Rosetta 2(DE3), purified (Ni-NTA, ULP1 digestion, size exclusion); not shown: 6xHis, N-terminal, cleaved; SUMO, N-terminal, cleaved
B3: p3dsRNA24 (dsRNA)
RNA 1: GGACGUACGUUUCGCGACUGUAGA
RNA 2: UCUACAGUCGCGAAACGUACGUCC
modifications: 5'-triphosphate on both strands
B4: Riplet full length (RING finger protein leading to RIG-I activation) (enzyme, human, UniProt Q8IUD6 1-432, looked up)
chain: T3 sequence 2
notes: Riplet, human, full length (1-432); also called Riplet-FL; Riplet WT; source: E. coli Rosetta 2(DE3), purified (Ni-NTA, SEC); not shown: His6, N-terminal, cleaved; SUMO, N-terminal, cleaved
B5: Riplet, full-length (Riplet-FL) (enzyme, human, UniProt Q8IUD6 1-432, looked up)
chain: T3 sequence 2
notes: Only the PrySpry domain is resolved in the cryo-EM maps; also called Riplet WT; E3 ligase Riplet; source: E. coli Rosetta 2(DE3), purified (Ni-NTA, ULP1 digestion, size exclusion); not shown: 6xHis, N-terminal, cleaved; SUMO, N-terminal, cleaved
B6: Riplet-ΔRING (94-432) (domain or fragment, human, UniProt Q8IUD6 94-432, looked up)
chain: AGSDPAHCPCPGSSSLSSAAARPRRRPELQRVAVEKSITEVAQELTELVEHLVDIVRSLQNQRPLSESGPDNELSILGKAFSSGVDLSMASPKLVTSDTAAGKIRDILHDLEEIQEKLQESVTWKEAPEAQMQGELLEAPSSSSCPLPDQSHPALRRASRFAQWAIHPTFNLKSLSCSLEVSKDSRTVTVSHRPQPYRWSCERFSTSQVLCSQALSSGKHYWEVDTRNCSHWAVGVASWEMSRDQVLGRTMDSCCVEWKGTSQLSAWHMVKETVLGSDRPGVVGIWLNLEEGKLAFYSVDNQEKLLYECTISASSPLYPAFWLYGLHPGNYLIIKQVKV
notes: Riplet, human, residues 94-432 (CC and PrySpry domains, RING deleted); source: E. coli Rosetta 2(DE3), purified (Ni-NTA, SEC); not shown: His6, N-terminal, cleaved; SUMO, N-terminal, cleaved
B7: Riplet-ΔRING (94-432) (domain or fragment, human, UniProt Q8IUD6 94-432, looked up)
chain: B6 chain
notes: Riplet, human, residues 94-432 (RING domain deleted; CC and PrySpry domains kept); pET-SUMO-Riplet-ΔRING(94-432); the PDB entries are of the full-length parent; source: E. coli Rosetta 2(DE3), purified (Ni-NTA, ULP1 digestion, size exclusion); not shown: 6xHis, N-terminal, cleaved; SUMO, N-terminal, cleaved

What was measured:
[1] = molecular target: T1, biotinylated Avi-tagged RIG-I (Retinoic …); assay: SPR; biotinylated RIG-I pre-incubated with p3SLR14 (1:1.5, 4 °C overnight) immobilised on a streptavidin SADH chip; Riplet constructs as analyte in HBS-EP+, 50 µl/min, dissociation 180 s, OneStep mode, 1:1 model; conditions: both partners purified
[2] = molecular target: T1, biotinylated Avi-tagged RIG-I (Retinoic …); assay: SPR; biotinylated apo-RIG-I (no RNA) immobilised on a streptavidin SADH chip; Riplet constructs as analyte in HBS-EP+, 50 µl/min, dissociation 180 s, OneStep mode, 1:1 model; conditions: both partners purified
[3] = molecular target: T1, biotinylated Avi-tagged RIG-I (Retinoic …); assay: SPR; biotinylated RIG-I pre-incubated with p3dsRNA24 (2.4:1, 4 °C overnight; two RIG-I per RNA) immobilised on a streptavidin SADH chip; Riplet constructs as analyte in HBS-EP+, 50 µl/min, dissociation 180 s, OneStep mode, 1:1 model; conditions: both partners purified
[4] = molecular target: T2, biotinylated Avi-tagged RIG-I; assay: SPR; biotinylated RIG-I pre-incubated with p3dsRNA24 (2.4:1, 4 °C overnight; two RIG-I on one RNA) immobilised on streptavidin SADH chip; Riplet constructs 0.125-10 µM in HBS-EP+, 50 µl/min, dissociation 180 s, OneStep mode, 1:1 model; conditions: both partners purified
[5] = molecular target: T3, RIG-I;Riplet; assay: cryo-EM; end-end complex, 2 RIG-I:1 RNA:1 Riplet dimer, 3.2 A; EMSA: RNA + RIG-I 30 min RT, then Riplet 30 min RT, 6% native PAGE, GelRed; protein storage buffer 25 mM HEPES pH 7.4, 200 mM NaCl, 5% glycerol, 5 mM BME (bindi); conditions: protein: recombinant;recombinant, tags: N-terminal 6xHis-SUMO, removed by ULP1;N-terminal 6xHis-SUMO, chain copies: 2;2, blunt
[6] = molecular target: T2, biotinylated Avi-tagged RIG-I; assay: SPR; apo biotinylated RIG-I immobilised on streptavidin SADH chip; Riplet constructs 0.125-10 µM in HBS-EP+, 50 µl/min, dissociation 180 s, OneStep mode, 1:1 model; conditions: both partners purified
[7] = molecular target: T2, biotinylated Avi-tagged RIG-I; assay: SPR; biotinylated RIG-I pre-incubated with p3SLR14 (1:1.5, 4 °C overnight) immobilised on streptavidin SADH chip; Riplet constructs 0.125-10 µM in HBS-EP+, 50 µl/min, dissociation 180 s, OneStep mode, 1:1 model; conditions: both partners purified

| Binder | koff [1] | kon [1] | koff [2] | kon [2] | koff [3] | kon [3] | Kd [4] | further results |
| --- | --- | --- | --- | --- | --- | --- | --- | --- |
| B1 | 0.18 s⁻¹ | 51000 M⁻¹ s⁻¹ | 0.18 s⁻¹ | 60000 M⁻¹ s⁻¹ | 0.19 s⁻¹ | 130000 M⁻¹ s⁻¹ |  | Kd [1]: 3600 nM; Kd [2]: 3100 nM |
| B2 |  |  |  |  |  |  | 1400 nM |  |
| B3 |  |  |  |  |  |  |  | binding result [5]: binds |
| B4 | 0.013 s⁻¹ | 19000 M⁻¹ s⁻¹ | 0.0034 s⁻¹ | 4600 M⁻¹ s⁻¹ | 0.003 s⁻¹ | 450000 M⁻¹ s⁻¹ |  |  |
| B5 |  |  |  |  |  |  | 6.6 nM | Kd [6]: 700 nM |
| B6 | 0.067 s⁻¹ | 54000 M⁻¹ s⁻¹ | 0.073 s⁻¹ | 110000 M⁻¹ s⁻¹ | 0.0085 s⁻¹ | 810000 M⁻¹ s⁻¹ |  | Kd [2]: 700 nM |
| B7 |  |  |  |  |  |  | 10 nM | Kd [7]: 700 to 1200 nM |
